Article PMC4164784, “4E-BPs require non-canonical 4E-binding motifs and a lateral surface of eIF4E to repress translation” (Nature Communications, 2014)
Where a chain is given by its changes, count along the chain named. Entries after “also recorded” stand apart in the source; their conditions may differ. One block for each molecule: values may come before it.

Experiments:
endogenous eIF4E = assay: Coimmunoprecipitation / m7GTP pull-down with endogenous eIF4E in S2 cell lysates; type: cell-based, Drosophila melanogaster; settings: western blot
Protocol: The coimmunoprecipitations assays were performed as previously described. For the pull downs using m^7GTP beads, 25 μl of immobilized γ-aminophenyl-m^7GTP (C10-spacer—Jena Bioscience) beads was added to the cell lysates and the mixtures were rotated for 1 h at 4 °C. The beads were washed three times with NET buffer (50 mM Tris (pH 7.4), 150 mM NaCl, 1 mM EDTA and 0.1% Triton X-100). The bound proteins were eluted with 2 × SDS–polyacrylamide gel electrophoresis (SDS–PAGE) sample buffer and analyzed by western blotting (WB). All of the WB experiments were developed with the ECL western blotting detection system (GE Healthcare) as recommended by the manufacturer. The antibodies used in this study are listed in Supplementary Table 2.
Thor and 4E-T) or HA-eIF4G and endogenous eIF4E in S2 cell lysates. The proteins were immunoprecipitated using a polyclonal anti-eIF4E antibody (α-4E). The pre-immune (Pre-I) serum and an HA-tagged version of MBP served as negative controls. The inputs (1%) and immunoprecipitates (10%) were analyzed by western blotting using anti-HA and anti-eIF4E antibodies. (b,c) The interaction of HA-tagged full length 4E-BPs (CUP, Thor and 4E-T) and eIF4G with endogenous eIF4E was analyzed by coimmunoprecipitation using anti-HA antibodies (b) or by pull-down using m7GTP-Sepharose beads (c). HA-MBP served as a negative control. The inputs (10%) and immunoprecipitates (30%) were analyzed by western blotting using anti-HA and anti-eIF4E antibodies. (d) Western blot showing the interaction of HA-Thor (full-length either wild-type or mutants) with endogenous eIF4E in S2 cells. The proteins were immunoprecipitated using anti-HA antibodies and analyzed as described in (b,c). (e) Western blot showing the interaction of HA-4E-T (residues 1–511, wild-type or mutants) with endogenous eIF4E. The proteins were immunoprecipitated using anti-HA antibodies and analyzed as described in (b,c). The size markers (kDa) are shown to the right of each panel. Mutants are described in Supplementary Table 1.

[1] = target: T1, eIF4E–eIF4G complex (eIF4E WT; eIF4G residues 578–650) (Drosophila melanogaster, UniProt P48598); assay: Competition assay, displacement of GST-eIF4G from preassembled eIF4E (WT)–eIF4G complexes; type: biochemical; settings: Fig. 5a,c; fivefold molar excess of MBP-tagged competitor, 30 min at 4 °C, m7GTP or Strep-Tactin pull down
T1 construct: full-length eIF4E (WT or the II-AA mutant) containing an N-terminal SNH-tag was coexpressed; made in house; host or cells: E. coli BL21 Star (DE3), coexpression
T1 sequence (P48598 1-248 isoform P48598-2): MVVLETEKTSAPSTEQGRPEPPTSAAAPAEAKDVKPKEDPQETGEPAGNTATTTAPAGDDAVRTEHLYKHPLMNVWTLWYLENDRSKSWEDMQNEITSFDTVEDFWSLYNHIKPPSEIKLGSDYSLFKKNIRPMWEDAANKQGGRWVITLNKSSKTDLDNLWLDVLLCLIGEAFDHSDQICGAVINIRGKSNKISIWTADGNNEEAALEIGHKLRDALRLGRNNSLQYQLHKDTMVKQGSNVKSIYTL
Protocol: For the competition assays shown in Figs 5a,c and 6a,b, complexes containing SHN- or MBP-tagged eIF4E (WT or II-AA mutant) bound to GST-eIF4G (residues 578–650), GST-Thor (full length), GST-4E-T (residues 1–58) or GST-CUP (311–440) were obtained by coexpressing the corresponding proteins in E. coli BL21 (DE3) STAR cells (30 ml culture). The cells were resuspended in lysis buffer (5 ml) that was supplemented with EDTA-free protease inhibitor (Roche) and 1 mg ml^−1 lysozyme and lysed by sonication. The cleared lysates were incubated with 400 μl of Protino Glutathione Agarose 4B (Macherey-Nagel) for 1 h. The beads were washed three times with lysis buffer, and the proteins were eluted after 10 min of incubation with lysis buffer containing 25 mM L-glutathione. The protein complexes were stored at −20 °C or used in competition assays.
The purified recombinant complexes were mixed with excess amounts of the indicated purified competitor proteins (Fig. 5c) or with bacterial lysates expressing the competitor proteins (Figs 5a and 6) and incubated for 30 min at 4 °C. After incubation, 20 μl of immobilized γ-Aminophenyl-m^7GTP or Strep-Tactin Sepharose (IBA), were added to the samples and incubated for another 40 min at 4 °C. The beads were washed three times with lysis buffer and eluted with lysis buffer containing 2.5 mM desthiobiotin (Strep-Tactin Sepharose) or with 20 μl of SDS–PAGE loading buffer (Aminophenyl-m^7GTP beads). The proteins were analyzed by 10–15% SDS–PAGE followed by staining with Coomassie blue staining. […]

eIF4E (full length, WT) = assay: GST/MBP pull-down of full-length WT eIF4E, coexpressed in E. coli; type: binding, Drosophila melanogaster; settings: recombinant CUP (311–440), Thor (full length), 4E-T (1–58) or eIF4G (578–650), WT or mutant, SDS–PAGE
Protocol: For the pull-down assays shown in Fig. 3 and Supplementary Fig. 6a, the full-length His6- or SHN-tagged eIF4E (WT or II-AA mutant) was coexpressed with GST or MBP-tagged protein fragments, including CUP (residues 311–440), Thor (full length), 4E-T (residues 1–58) or eIF4G (residues 578–650) in E. coli BL21 (DE3) STAR cells in autoinducing medium[44] overnight at 20 °C. The cells were resuspended in lysis buffer (20 mM Tris–HCl (pH 7.5), 100 mM NaCl, 1 mM DTT) supplemented with EDTA-free protease inhibitor (Roche) and lysed by sonication. The cleared lysates were incubated for 1 h with 20 μl of Protino Glutathione Agarose 4B beads (Macherey-Nagel) or amylose resin (New England Biolabs). The beads were washed three times with lysis buffer, and the bound proteins were eluted with lysis buffer containing 25 mM L-glutathione or 25 mM maltose for 15 min. The proteins were analyzed by 10–15% SDS–PAGE followed by Coomassie blue staining.

[2] = target: T2, SHN-eIF4E (full length, WT) (Drosophila melanogaster, UniProt P48598-2 1-248); assay: pull-down; competition: purified SHN-eIF4E–GST-eIF4G complex with fivefold molar excess of purified MBP-Thor, 30 min at 4 °C; Strep-Tactin beads; settings: both partners purified
T2 construct: eIF4E, Drosophila melanogaster; also called SHN-tagged eIF4E; SNH-tagged eIF4E; not shown: Strep-NusA-His (SHN), N-terminal, kept
T2 sequence (looked up): T1 sequence (P48598 1-248 isoform P48598-2)

[3] = target: T3, SHN-eIF4E (full length, II-AA mutant) (Drosophila melanogaster, UniProt P48598-2 1-248, Ile96 to Ala (II-AA) | Ile112 to Ala (II-AA)); assay: pull-down; preassembled complexes of SHN-eIF4E (WT or II-AA) with GST-eIF4G, GST-CUP, GST-Thor or GST-4E-T (coexpressed, purified on glutathione agarose) recovered on Strep-Tactin beads; settings: both partners purified
T3 construct: eIF4E, Drosophila melanogaster; also called SHN-tagged eIF4E II-AA; not shown: Strep-NusA-His (SHN), N-terminal, kept
T3 sequence (looked up): T1 sequence (P48598 1-248 isoform P48598-2) with I96A, I112A

[4] = target: T2, SHN-eIF4E (full length, WT); assay: as above; settings: both partners purified

B1: Thor ΔNC: Thor ∆76–84, non-canonical motif deleted (protein)
chain: MSASPTARQAITQALPMITRKVVISDPIQMPEVYSSTPGGTLYSTTPGGTKLIYERAFMKNLRGSPLSQTPPSNVRTPFRKCVPVPTELIKQTKSLKIEDQEQFQLDL
modifications: left off: HA (λN-HA, from the vector pAc5.1-λN-HA), end not stated, kept | V5, end not stated, state not stated
notes: Thor ∆76–84, non-canonical motif deleted
- interaction with endogenous eIF4E (in words) (endogenous eIF4E): abolished the interaction with eIF4E
- competition with eIF4G for eIF4E WT (in words) [1]: abolish its ability to compete with eIF4G
- binding to WT eIF4E (in words) (eIF4E (full length, WT)): The results obtained for the Thor NC* and C+NC* mutants were confirmed; also recorded: interacted with eIF4E

- binding result [2]: binds
B2: MBP-Thor (full length, WT) (natural protein, Drosophila melanogaster, UniProt Q9XZ56 1-117, looked up)
chain: MSASPTARQAITQALPMITRKVVISDPIQMPEVYSSTPGGTLYSTTPGGTKLIYERAFMKNLRGSPLSQTPPSNVPSCLLRGTPRTPFRKCVPVPTELIKQTKSLKIEDQEQFQLDL
notes: Thor, Drosophila melanogaster; not shown: MBP, N-terminal, kept

- binding result [3]: binds
- binding result [4]: binds
B3: GST-CUP (residues 311–440) (domain or fragment, Drosophila melanogaster, UniProt Q9VMA3 311-440, looked up)
chain: VRPTTAPVVSSKPVKSYTRSRLMDIRNGMFNALMHRSKESFVMPRIATCDDIELEGRLRRMNIWRTSDGTRFRTRSTTANLNMNNNNNNECMPAFFKNKNKPNLISDESIIQSQPPQPQTEFQDPAIVNQ
notes: CUP, Drosophila melanogaster, residues 311–440; may be the same construct as m25; source: E. coli BL21 (DE3) STAR, coexpressed with SHN-eIF4E, complex purified on glutathione agarose
